# Measurements reported in patent US20240270874A1 (JIANGSU HENGRUI PHARMACEUTICALS, published 2024).
# T1: human KLB on CHOK1-hKLB cells (human, UniProt Q86Z14 1-1044)
# T1 construct: whole, on cells; also called human KLB antigen; β-Klotho
# T1 sequence (looked up): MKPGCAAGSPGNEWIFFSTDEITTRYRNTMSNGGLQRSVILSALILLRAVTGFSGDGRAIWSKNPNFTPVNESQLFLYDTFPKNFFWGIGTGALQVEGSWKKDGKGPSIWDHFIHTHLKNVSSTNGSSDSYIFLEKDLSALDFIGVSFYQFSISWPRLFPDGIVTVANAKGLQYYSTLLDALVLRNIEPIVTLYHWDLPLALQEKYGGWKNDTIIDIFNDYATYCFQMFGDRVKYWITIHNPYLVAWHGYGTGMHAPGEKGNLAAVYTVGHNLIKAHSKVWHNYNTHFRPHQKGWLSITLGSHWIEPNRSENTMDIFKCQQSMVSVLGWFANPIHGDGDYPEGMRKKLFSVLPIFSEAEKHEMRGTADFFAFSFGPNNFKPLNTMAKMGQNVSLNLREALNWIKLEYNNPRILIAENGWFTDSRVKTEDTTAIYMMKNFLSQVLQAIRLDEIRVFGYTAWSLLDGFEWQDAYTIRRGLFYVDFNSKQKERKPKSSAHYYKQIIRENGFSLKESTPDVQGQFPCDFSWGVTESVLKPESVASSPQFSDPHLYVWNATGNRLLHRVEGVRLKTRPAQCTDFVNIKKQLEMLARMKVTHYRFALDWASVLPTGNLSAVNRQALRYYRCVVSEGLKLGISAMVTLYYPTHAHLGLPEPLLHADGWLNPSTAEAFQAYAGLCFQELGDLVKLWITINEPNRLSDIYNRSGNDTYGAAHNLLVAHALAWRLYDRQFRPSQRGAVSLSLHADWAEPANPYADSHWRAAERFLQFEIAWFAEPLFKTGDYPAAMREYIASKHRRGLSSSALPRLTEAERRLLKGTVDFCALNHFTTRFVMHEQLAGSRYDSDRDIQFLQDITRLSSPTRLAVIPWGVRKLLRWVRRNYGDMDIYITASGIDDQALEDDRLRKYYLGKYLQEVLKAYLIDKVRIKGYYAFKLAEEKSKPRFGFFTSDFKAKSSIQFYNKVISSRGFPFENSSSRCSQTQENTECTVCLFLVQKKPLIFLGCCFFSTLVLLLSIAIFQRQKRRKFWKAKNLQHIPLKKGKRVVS
# Biological target: T1, human KLB on CHOK1-hKLB cells
# Assay: flow cytometry on CHOK1-hKLB cells
# Description: The above heavy chain variable regions were fused to the heavy chain constant region (set forth in SEQ ID NO: 22) and the light chain variable regions were fused to the light chain constant region (set forth in SEQ ID NO: 23) to construct anti-KLB antibodies, and the binding activity of the obtained antibodies for CHOK1-hKLB was detected (see Test Example 2 of the present disclosure for the experimental method).
# The binding ability of the antibodies for CHOK1 cell strains CHOK1-hKLB and CHOK1-cynoKLB overexpressing human KLB and monkey KLB (see Example 1 for specific preparation procedure), respectively, was detected by flow cytometry. The specific procedure was as follows: the above cells were cultured in 10% FBS-containing IMDM medium and incubated in an incubator at 37° C. and 5% CO₂ for 2 days. The cells were then added to a cell plate at 1×10⁵ cells per well, centrifuged at 300 g for 5 min, and then washed once with 1% BSA. The antibody diluted in gradient was added to the cell plate at 100 μL per well, and the mixture was incubated at 4° C. for 1 h and washed once with 1% BSA. The diluted (1:400) APC-goat anti-human IgG Fc fluorescent secondary antibody was added at 100 μL per well, and the resulting mixture was incubated at 4° C. for 1 h. The plate was washed three times with 1% BSA, PBS was added at 100 μL per well, and the plate was read.
row,Binder,EC50 [nM]
1,"hAb18-7 (antibody, human IgG1, kappa, L234A L235A, V domains shown, humanized mAb-18: hAb18VH1 + hAb18VL2-1; human IgG1 (L234A, L235A) / kappa constant regions) VH: EVQLVQSGAEVKKPGASVKVSCKASGYTFTDYAMHWVRQAPGQRLEWMGVISTYSGTTNYNQNFKGRVTITVDKSASTAYMELSSLRSEDTAVYYCARSGPLDYWGQGTTVTVSS VL: ENVLTQSPDFQSVTPKEKVTITCRASSSVSSSYLHWYQQKPDQSPKLWIYSTSQLASGVPSRFSGSGSGTDYTLTINSLEAEDAATYYCQQYSGYPLTFGQGTKLEIKR",2.4
2,"hAb18-9 (antibody, human IgG1, kappa, L234A L235A, V domains shown, humanized mAb-18: hAb18VH1 + hAb18VL2-3; human IgG1 (L234A, L235A) / kappa constant regions) VH: EVQLVQSGAEVKKPGASVKVSCKASGYTFTDYAMHWVRQAPGQRLEWMGVISTYSGTTNYNQNFKGRVTITVDKSASTAYMELSSLRSEDTAVYYCARSGPLDYWGQGTTVTVSS VL: ENVLTQSPDFQSVTPKEKVTITCRVSSSVSSSYLHWYQQKPDQSPKLWIYSTSQLASGVPSRFSGSGSGTDYTLTINSLEAEDAATYYCQQYSGYPLTFGQGTKLEIKR",2.4
3,"hAb18-10 (antibody, human IgG1, kappa, L234A L235A, V domains shown, humanized mAb-18: hAb18VH1 + hAb18VL2-4; human IgG1 (L234A, L235A) / kappa constant regions) VH: EVQLVQSGAEVKKPGASVKVSCKASGYTFTDYAMHWVRQAPGQRLEWMGVISTYSGTTNYNQNFKGRVTITVDKSASTAYMELSSLRSEDTAVYYCARSGPLDYWGQGTTVTVSS VL: ENVLTQSPDFQSVTPKEKVTITCRASSSVSTSYLHWYQQKPDQSPKLWIYSTSQLASGVPSRFSGSGSGTDYTLTINSLEAEDAATYYCQQYSGYPLTFGQGTKLEIKR",2.7
4,"hAb18-16 (antibody, human IgG1, kappa, L234A L235A, V domains shown, humanized mAb-18: hAb18VH1 + hAb18VL2-10; human IgG1 (L234A, L235A) / kappa constant regions) VH: EVQLVQSGAEVKKPGASVKVSCKASGYTFTDYAMHWVRQAPGQRLEWMGVISTYSGTTNYNQNFKGRVTITVDKSASTAYMELSSLRSEDTAVYYCARSGPLDYWGQGTTVTVSS VL: ENVLTQSPDFQSVTPKEKVTITCRASSSVSTSYLHWYQQKPDQSPKLWIYSTSNLASGVPSRFSGSGSGTDYTLTINSLEAEDAATYYCQQYSGYPLTFGQGTKLEIKR",2.4
5,"hAb18-18 (antibody, human IgG1, kappa, L234A L235A, V domains shown, humanized mAb-18: hAb18VH1 + hAb18VL2-12; human IgG1 (L234A, L235A) / kappa constant regions) VH: EVQLVQSGAEVKKPGASVKVSCKASGYTFTDYAMHWVRQAPGQRLEWMGVISTYSGTTNYNQNFKGRVTITVDKSASTAYMELSSLRSEDTAVYYCARSGPLDYWGQGTTVTVSS VL: ENVLTQSPDFQSVTPKEKVTITCRASSSLSSSYLHWYQQKPDQSPKLWIYSTSNLASGVPSRFSGSGSGTDYTLTINSLEAEDAATYYCQQYSGYPLTFGQGTKLEIKR",1.7
6,"hAb18-19 (antibody, human IgG1, kappa, L234A L235A, V domains shown, humanized mAb-18: hAb18VH1 + hAb18VL2-13; human IgG1 (L234A, L235A) / kappa constant regions) VH: EVQLVQSGAEVKKPGASVKVSCKASGYTFTDYAMHWVRQAPGQRLEWMGVISTYSGTTNYNQNFKGRVTITVDKSASTAYMELSSLRSEDTAVYYCARSGPLDYWGQGTTVTVSS VL: ENVLTQSPDFQSVTPKEKVTITCRASSNVSSSYLHWYQQKPDQSPKLWIYSTSNLASGVPSRFSGSGSGTDYTLTINSLEAEDAATYYCQQYSGYPLTFGQGTKLEIKR",4.1
7,"hAb18-14 (antibody, human IgG1, kappa, L234A L235A, V domains shown, humanized mAb-18: hAb18VH1 + hAb18VL2-8; human IgG1 (L234A, L235A) / kappa constant regions) VH: EVQLVQSGAEVKKPGASVKVSCKASGYTFTDYAMHWVRQAPGQRLEWMGVISTYSGTTNYNQNFKGRVTITVDKSASTAYMELSSLRSEDTAVYYCARSGPLDYWGQGTTVTVSS VL: ENVLTQSPDFQSVTPKEKVTITCRATSSVSSSYLHWYQQKPDQSPKLWIYSTSNLASGVPSRFSGSGSGTDYTLTINSLEAEDAATYYCQQYSGYPLTFGQGTKLEIKR",1.6
8,"hAb18-12 (antibody, human IgG1, kappa, L234A L235A, V domains shown, humanized mAb-18: hAb18VH1 + hAb18VL2-6; human IgG1 (L234A, L235A) / kappa constant regions) VH: EVQLVQSGAEVKKPGASVKVSCKASGYTFTDYAMHWVRQAPGQRLEWMGVISTYSGTTNYNQNFKGRVTITVDKSASTAYMELSSLRSEDTAVYYCARSGPLDYWGQGTTVTVSS VL: ENVLTQSPDFQSVTPKEKVTITCRASSSLSSSYLHWYQQKPDQSPKLWIYSTSQLASGVPSRFSGSGSGTDYTLTINSLEAEDAATYYCQQYSGYPLTFGQGTKLEIKR",1.9
9,"hAb18-15 (antibody, human IgG1, kappa, L234A L235A, V domains shown, humanized mAb-18: hAb18VH1 + hAb18VL2-9; human IgG1 (L234A, L235A) / kappa constant regions) VH: EVQLVQSGAEVKKPGASVKVSCKASGYTFTDYAMHWVRQAPGQRLEWMGVISTYSGTTNYNQNFKGRVTITVDKSASTAYMELSSLRSEDTAVYYCARSGPLDYWGQGTTVTVSS VL: ENVLTQSPDFQSVTPKEKVTITCRVSSSVSSSYLHWYQQKPDQSPKLWIYSTSNLASGVPSRFSGSGSGTDYTLTINSLEAEDAATYYCQQYSGYPLTFGQGTKLEIKR",1.9
10,"hAb18-17 (antibody, human IgG1, kappa, L234A L235A, V domains shown, humanized mAb-18: hAb18VH1 + hAb18VL2-11; human IgG1 (L234A, L235A) / kappa constant regions) VH: EVQLVQSGAEVKKPGASVKVSCKASGYTFTDYAMHWVRQAPGQRLEWMGVISTYSGTTNYNQNFKGRVTITVDKSASTAYMELSSLRSEDTAVYYCARSGPLDYWGQGTTVTVSS VL: ENVLTQSPDFQSVTPKEKVTITCRASSSVTSSYLHWYQQKPDQSPKLWIYSTSNLASGVPSRFSGSGSGTDYTLTINSLEAEDAATYYCQQYSGYPLTFGQGTKLEIKR",1.8
11,"hAb18-13 (antibody, human IgG1, kappa, L234A L235A, V domains shown, humanized mAb-18: hAb18VH1 + hAb18VL2-7; human IgG1 (L234A, L235A) / kappa constant regions) VH: EVQLVQSGAEVKKPGASVKVSCKASGYTFTDYAMHWVRQAPGQRLEWMGVISTYSGTTNYNQNFKGRVTITVDKSASTAYMELSSLRSEDTAVYYCARSGPLDYWGQGTTVTVSS VL: ENVLTQSPDFQSVTPKEKVTITCRASSNVSSSYLHWYQQKPDQSPKLWIYSTSQLASGVPSRFSGSGSGTDYTLTINSLEAEDAATYYCQQYSGYPLTFGQGTKLEIKR",5.4
12,"hAb18-11 (antibody, human IgG1, kappa, L234A L235A, V domains shown, humanized mAb-18: hAb18VH1 + hAb18VL2-5; human IgG1 (L234A, L235A) / kappa constant regions) VH: EVQLVQSGAEVKKPGASVKVSCKASGYTFTDYAMHWVRQAPGQRLEWMGVISTYSGTTNYNQNFKGRVTITVDKSASTAYMELSSLRSEDTAVYYCARSGPLDYWGQGTTVTVSS VL: ENVLTQSPDFQSVTPKEKVTITCRASSSVTSSYLHWYQQKPDQSPKLWIYSTSQLASGVPSRFSGSGSGTDYTLTINSLEAEDAATYYCQQYSGYPLTFGQGTKLEIKR",2.7
13,"mAb99-hIgG1 (antibody, V domains shown, chimeric: murine mAb-99 variable regions on human IgG1 (L234A, L235A) / kappa constant regions; also called chimeric antibody of mAb99) VH: EVQLQQSGAELVRPGSSVKMSCKTSGYTFTNYGINWVKQRPRQGLEWIGYIYIGNGDIEYNAKFKGKATLTSDTSSSTAYMQLSSLTSEDSAIYFCARGRGLGHFDVWGTGTTVTVSS VL: DVQITQSPSYLAASPGETITINCRASKSISKFLAWFQEKPGKTNKLLIYSGSTLQSGIPSRFSGSGSGTDFTLTISGLEPEDFAMYYCQQHNEYPWTFGGGTKLEIKR",0.97
14,"mAb18-hIgG1 (antibody, V domains shown, chimeric: murine mAb-18 variable regions on human IgG1 (L234A, L235A) / kappa constant regions; also called chimeric antibody of mAb18) VH: QVQLQQSGPELVRPGVSVKISCKGSGYTFTDYAMHWVKQTHAKSLEWIGVISTYSGTTNYNQNFKGKATVTVDKSSSTAYMELARLTSEDSAIYYCARSGPLDYWGQGTSLTVSS VL: ENVLTQSPAIMSASPGEKVTMTCRASSSVSSSYLHWYQQKSGASPKLWIYSTSNLASGVPERFSGSGSGTSYSLTISSVEAEDAATYYCQQYSGYPLTFGSGTKLEIKR",2.16

# Biological target: T2, human FGFR1c on cells (human, UniProt P11362 22-822)
# T2 construct: whole, on cells; also called hFGFR1c; CHOK1-hFGFR1c
# Assay: hybridoma clone screening on recombinant cells
# T2 sequence (P11362 22-822): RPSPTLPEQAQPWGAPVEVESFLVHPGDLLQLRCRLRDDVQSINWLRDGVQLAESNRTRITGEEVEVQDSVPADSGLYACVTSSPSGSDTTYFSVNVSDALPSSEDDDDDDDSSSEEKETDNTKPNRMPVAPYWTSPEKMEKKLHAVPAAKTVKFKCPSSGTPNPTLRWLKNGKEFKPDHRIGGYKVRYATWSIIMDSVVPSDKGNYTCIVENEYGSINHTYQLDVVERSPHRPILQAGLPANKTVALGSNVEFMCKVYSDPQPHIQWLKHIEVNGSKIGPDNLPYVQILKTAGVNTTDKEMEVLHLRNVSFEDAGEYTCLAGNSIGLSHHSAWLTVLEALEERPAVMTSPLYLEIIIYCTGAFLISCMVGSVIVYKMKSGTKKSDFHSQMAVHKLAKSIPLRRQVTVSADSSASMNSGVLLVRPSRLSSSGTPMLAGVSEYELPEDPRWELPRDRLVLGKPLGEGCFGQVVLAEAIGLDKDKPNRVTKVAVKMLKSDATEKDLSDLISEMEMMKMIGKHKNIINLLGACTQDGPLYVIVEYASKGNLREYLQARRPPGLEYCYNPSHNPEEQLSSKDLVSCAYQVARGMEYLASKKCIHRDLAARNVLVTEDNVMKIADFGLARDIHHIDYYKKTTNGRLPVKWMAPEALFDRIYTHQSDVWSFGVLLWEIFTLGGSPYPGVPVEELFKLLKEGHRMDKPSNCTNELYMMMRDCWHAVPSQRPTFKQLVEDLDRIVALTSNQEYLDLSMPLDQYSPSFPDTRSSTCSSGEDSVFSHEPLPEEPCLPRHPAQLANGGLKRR
row,Binder,binding result
1,"mAb-99 (antibody, V domains shown, murine hybridoma antibody; also called murine antibody mAb-99) VH: EVQLQQSGAELVRPGSSVKMSCKTSGYTFTNYGINWVKQRPRQGLEWIGYIYIGNGDIEYNAKFKGKATLTSDTSSSTAYMQLSSLTSEDSAIYFCARGRGLGHFDVWGTGTTVTVSS VL: DVQITQSPSYLAASPGETITINCRASKSISKFLAWFQEKPGKTNKLLIYSGSTLQSGIPSRFSGSGSGTDFTLTISGLEPEDFAMYYCQQHNEYPWTFGGGTKLEIK",no binding
2,"mAb-18 (antibody, V domains shown, murine hybridoma antibody; also called murine antibody mAb-18) VH: QVQLQQSGPELVRPGVSVKISCKGSGYTFTDYAMHWVKQTHAKSLEWIGVISTYSGTTNYNQNFKGKATVTVDKSSSTAYMELARLTSEDSAIYYCARSGPLDYWGQGTSLTVSS VL: ENVLTQSPAIMSASPGEKVTMTCRASSSVSSSYLHWYQQKSGASPKLWIYSTSNLASGVPERFSGSGSGTSYSLTISSVEAEDAATYYCQQYSGYPLTFGSGTKLEIK",no binding
